# Experimental data as given in patent US12617818 (UNIVERSITY OF NORTH TEXAS, dated 2026).
# Primed or numbered codes have the meaning given here. Where no end group is shown, it is not given here. FITC′ = fluorescein isothiocyanate
# T1: Cardiac muscle myosin S2 synthetic peptide for GFS, E930del mutant (MYH7 E930del), 35 residues (human, not fully specified)
# T1 peptide: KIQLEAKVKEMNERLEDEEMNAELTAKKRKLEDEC
# B1: Human smooth myosin S2 peptide (MYH11), 21 residues (peptide)
# peptide: EMEARLEEEEDRGQQLQAERK
# modifications: also: in FRET: FITC on N-terminus of one monomer, terbium-DTPA-cytosine chelate on C-terminal Lys of the other
# notes: also called smooth muscle myosin S2^pep
# B2: TRITC (tetramethylrhodamine) labeled stabilizing peptide (peptide)
# peptide: KKKKKKKKFKAKKKKKK
# modifications: also: TRITC label, site not given here
# notes: also called labeled Stabilizer; fluorescently labelled stabilizer peptide
# B3: Cardiac muscle myosin S2 synthetic peptide for GFS (MYH7), 36 residues (peptide)
# peptide: KIQLEAKVKEMNERLEDEEEMNAELTAKKRKLEDEC
# modifications: also: crosslinked to coverslip or silica bead through iodoacetamide-succinimidyl ester
# B4: Skeletal muscle myosin S2 synthetic peptide for GFS (MYH2), 36 residues (peptide)
# peptide: KIQLEAKIKEVTERAEDEEEINAELTAKKRKLEDEC
# B5: Destabilizer peptide (peptide)
# peptide: EMNERLEDEREMKAELTAK
# notes: also called destabilizing peptide; unlabeled destabilizer
# B6: FITC (fluorescein isothiocyanate) labeled destabilizing peptide (peptide)
# peptide: {FITC′}-EMNERLEDEREMKAELTAK
# notes: also called labeled Destabilizer; fluorescein labeled destabilizer peptide
# B7: Human β-cardiac mutant myosin S2 peptide (E930del), 18 residues (peptide)
# peptide: EMNERLEDEEMNAELTAK
# modifications: also: in FRET: FITC on N-terminus of one monomer, terbium-DTPA-cytosine chelate on C-terminal Lys of the other
# notes: Deletion of glutamate 930 already in the entry; also called Edel930; ΔE930
# B8: Human β-cardiac myosin S2 peptide, wild-type (MYH7, 19 residues) (peptide)
# peptide: EMNERLEDEEEMNAELTAK
# modifications: also: in FRET: FITC on N-terminus of one monomer, terbium-DTPA-cytosine chelate on C-terminal Lys of the other
# notes: Chemically synthesized; forms a coiled-coil dimer; also called human cardiac myosin S2 peptide; cardiac muscle myosin S2^pep
# B9: Smooth muscle myosin S2 synthetic peptide for GFS (MYH11), 36 residues (peptide)
# peptide: KQELEEILHEMEARLEEEEDRGQQLQAERKKMAQQC
# B10: Human β-cardiac mutant myosin S2 peptide (E924K), 19 residues (peptide)
# peptide: EMNKRLEDEEEMNAELTAK
# modifications: also: in FRET: FITC on N-terminus of one monomer, terbium-DTPA-cytosine chelate on C-terminal Lys of the other
# notes: E924K already in the entry; also called Cardiac Myosin S2 Mutant, E924K
# B11: Human skeletal myosin S2 peptide (MYH2), 19 residues (peptide)
# peptide: EVTERAEDEEEINAELTAK
# modifications: also: in FRET: FITC on N-terminus of one monomer, terbium-DTPA-cytosine chelate on C-terminal Lys of the other
# notes: also called skeletal muscle myosin S2^pep
# B12: Stabilizer peptide (peptide)
# peptide: KKKKKKKKFKAKKKKKK
# notes: also called stabilizing peptide; unlabeled stabilizer
# Key:
# [1] = target: the molecule itself; test: FRET donor lifetime on dilution of donor- and acceptor-labelled peptide; dissociation of the S2 peptide coiled-coil dimer (control)
# Rabbit skeletal myosin [2] = target: T2, Rabbit skeletal myosin (rabbit); test: 'previously calculated Kd values'; row stands under the IC-50 head for stabilizers, read as labeled stabilizer; method and source of the myosin not stated
# T2 construct: mature; also called rabbit whole skeletal myosin; rabbit skeletal myosin S2
# [3] = target: the molecule itself; test: cell-based or functional assay
# [4] = target: B8; test: competitive ELISA (FIG. 44); differs from 6 nM at paragraph 385
# Procedure: (§1) The assay began with coating 96 well microtiter plate with rabbit skeletal myosin molecule overnight. […] After incubation at room temperature for an hour, the unbound protein complexes were washed with PBS and blocking buffer. Enzyme conjugated secondary antibody were added on to the wells and allowed conjugate for an hour at room temperature. After washing the wells with detergent buffer, color developing BCIP substrate were added on to the wells. Images of the color developed in the wells were captured and analyzed in Image J.
# [5] = target: B1; test: FRET donor lifetime of the labelled smooth muscle S2 peptide dimer titrated with the peptide
# Source text: (§2) Donor probe was conjugated to C-terminus of a myosin S2 peptide monomer and acceptor probe was conjugated to N-terminus of another myosin S2 peptide. In FRET as lanthanide of the donor probe decays, energy goes to fluorescein and it emits out energy in form of light. In addition, as the monomers come closer to each other, lifetime of donor decreases indicating a decrease in distance between donor and acceptor probe; an opposite effect is observed, with an increase in distance between the probes, […]. Lifetime of donor probe was measured in milliseconds.
# The specificity of peptides were later tested on the myosin S2 of the smooth muscle (MYH11). […] Smooth muscle myosin S2^pep was treated with different concentrations of anti-S2 peptides.
# Rabbit skeletal myosin [6] = target: T2, Rabbit skeletal myosin; test: cell-based or functional assay
# [7] = target: B4; test: cell-based or functional assay
# [8] = target: B3; test: cell-based or functional assay
# Rabbit skeletal myosin [9] = target: T2, Rabbit skeletal myosin; test: 'previously calculated Kd values, concentrations at which half of myosin is saturated'; method and source of the myosin not stated
# [10] = target: B4; test: cell-based or functional assay
# [11] = target: B3; test: cell-based or functional assay
# [12] = target: B9; test: cell-based or functional assay
# [13] = target: B11; test: FRET donor lifetime of 2 µM labelled S2 peptide dimer titrated with destabilizer
# Source text: as §2
# Like cardiac muscle myosin S2^pep, dilution by decreasing the concentration of dimer skeletal muscle myosin S2^pep was performed and further was treated with different concentrations of anti-S2 peptides (FIG. 28A, 28B). Different concentrations of dimer skeletal muscle myosin S2^pep was used with anti-S2 peptides.
# [14] = target: B8; test: FRET donor lifetime of labelled S2 peptide dimer titrated with destabilizer
# Source text: as §2
# (§3) During FRET assay, cardiac muscle myosin S2^pep was treated with increasing concentrations of anti-S2 peptides. […] Dilution to decrease the concentration of dimer cardiac muscle myosin S2^pep was performed to measure binding affinity of coiled-coil peptide and in turn to measure minimal concentration for stable dimer formation (FIG. 25A). […] (FIG. 25B)
# [15] = target: B8; test: competitive ELISA (curve fit of OD, FIG. 44B); antibody 1:64, 62.5 nM human cardiac S2 peptide, rabbit skeletal myosin coated; the sentence does not name the target
# Procedure: as §1
# [16] = target: the molecule itself; test: FRET, dimer dissociation (control); text value differs from Table 3
# [17] = target: B8; test: competitive ELISA (curve fit of OD), printed as 'binding efficiency'; antibody 1:64, 62.5 nM S2 peptide, stabilizer 0 to 250 nM, rabbit skeletal myosin coated
# Procedure: (§4) Unbound protein complexes are washed off by PBS and blocking buffer. Enzyme conjugated secondary antibody is added to the wells and allowed to conjugate for an hour. After washing with detergent buffer, color developing substrate BCIP is added and development of color in the wells is recorded. The video is analyzed by Image J to get the OD in the wells.
# [18] = target: B8; test: competitive ELISA, printed as 'binding efficiency'
# Procedure: as §4
# [19] = target: T1, Cardiac muscle myosin S2 synthetic …; test: cell-based or functional assay
# [20] = target: B8; test: competitive ELISA, printed as 'binding constant'; differs from 1.37 nM at paragraph 347
# Procedure: as §4
# Rabbit skeletal myosin [21] = target: T2, Rabbit skeletal myosin; test: 'previously calculated Kd values'; row stands under the IC-50 head for stabilizers, read as unlabeled stabilizer; method and source of the myosin not stated
# [22] = target: T1, Cardiac muscle myosin S2 synthetic …; test: cell-based or functional assay
# [23] = target: B8; test: FRET donor lifetime of labelled S2 peptide dimer titrated with stabilizer
# Source text: as §2, §3
# [24] = target: B7; test: FRET donor lifetime of 0.1 µM labelled S2 peptide dimer titrated with stabilizer
# [25] = target: B10; test: as above
# [26] = target: B11; test: as above
# [27] = target: B10; test: FRET donor lifetime of 0.1 µM labelled dimer titrated with stabilizer; text value and unit differ from Table 3
# Source text: as §2
# T2 sequence (Q28641 whole entry, chain 1 of 3): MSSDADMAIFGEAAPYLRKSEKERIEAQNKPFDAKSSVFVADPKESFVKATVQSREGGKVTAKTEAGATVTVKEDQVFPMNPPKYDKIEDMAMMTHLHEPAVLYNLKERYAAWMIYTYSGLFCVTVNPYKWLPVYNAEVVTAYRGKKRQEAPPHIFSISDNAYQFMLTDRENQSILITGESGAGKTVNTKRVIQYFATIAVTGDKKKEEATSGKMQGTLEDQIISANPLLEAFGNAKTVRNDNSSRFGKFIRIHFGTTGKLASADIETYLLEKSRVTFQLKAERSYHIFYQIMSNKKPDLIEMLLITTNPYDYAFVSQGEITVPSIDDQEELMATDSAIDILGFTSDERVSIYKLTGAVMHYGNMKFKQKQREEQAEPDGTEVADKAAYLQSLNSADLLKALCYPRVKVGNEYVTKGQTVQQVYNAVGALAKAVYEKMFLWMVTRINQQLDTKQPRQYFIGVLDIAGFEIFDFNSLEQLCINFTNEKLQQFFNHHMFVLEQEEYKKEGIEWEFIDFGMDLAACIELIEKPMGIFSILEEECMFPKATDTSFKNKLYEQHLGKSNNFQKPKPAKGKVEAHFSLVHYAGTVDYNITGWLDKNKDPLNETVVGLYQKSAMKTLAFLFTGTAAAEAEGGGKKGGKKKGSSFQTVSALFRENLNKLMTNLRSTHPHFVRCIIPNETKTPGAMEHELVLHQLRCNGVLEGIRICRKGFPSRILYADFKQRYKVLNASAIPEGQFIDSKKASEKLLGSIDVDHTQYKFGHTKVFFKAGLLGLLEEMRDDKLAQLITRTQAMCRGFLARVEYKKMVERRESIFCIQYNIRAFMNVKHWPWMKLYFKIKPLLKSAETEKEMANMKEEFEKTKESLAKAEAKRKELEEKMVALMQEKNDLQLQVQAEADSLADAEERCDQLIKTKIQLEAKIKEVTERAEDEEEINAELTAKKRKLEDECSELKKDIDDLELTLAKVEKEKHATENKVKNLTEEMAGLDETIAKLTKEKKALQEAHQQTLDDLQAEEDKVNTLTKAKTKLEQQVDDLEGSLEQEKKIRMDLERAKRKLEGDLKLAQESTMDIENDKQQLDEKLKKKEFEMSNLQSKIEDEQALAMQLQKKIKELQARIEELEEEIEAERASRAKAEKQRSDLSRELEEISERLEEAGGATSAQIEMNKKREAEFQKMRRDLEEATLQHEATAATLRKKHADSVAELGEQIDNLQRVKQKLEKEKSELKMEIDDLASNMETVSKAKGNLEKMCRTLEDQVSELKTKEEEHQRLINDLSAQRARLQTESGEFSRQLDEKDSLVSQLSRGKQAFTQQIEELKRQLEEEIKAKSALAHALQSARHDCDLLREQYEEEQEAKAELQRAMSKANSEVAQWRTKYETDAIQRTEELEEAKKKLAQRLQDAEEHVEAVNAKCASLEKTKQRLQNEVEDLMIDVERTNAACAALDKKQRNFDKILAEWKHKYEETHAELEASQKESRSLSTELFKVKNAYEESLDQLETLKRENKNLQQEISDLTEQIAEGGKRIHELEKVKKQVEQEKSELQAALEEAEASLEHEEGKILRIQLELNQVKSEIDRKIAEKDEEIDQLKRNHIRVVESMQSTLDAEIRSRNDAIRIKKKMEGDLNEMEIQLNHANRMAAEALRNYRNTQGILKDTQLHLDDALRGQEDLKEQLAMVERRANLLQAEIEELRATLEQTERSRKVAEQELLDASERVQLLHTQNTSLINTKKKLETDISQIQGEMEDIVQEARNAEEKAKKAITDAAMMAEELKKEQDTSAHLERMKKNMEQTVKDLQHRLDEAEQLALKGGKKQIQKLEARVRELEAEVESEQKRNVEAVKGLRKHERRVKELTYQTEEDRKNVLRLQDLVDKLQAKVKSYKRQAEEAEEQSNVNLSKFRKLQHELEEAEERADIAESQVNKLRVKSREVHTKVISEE
# T2 sequence (P02602 2-192, chain 2 of 3, further chain): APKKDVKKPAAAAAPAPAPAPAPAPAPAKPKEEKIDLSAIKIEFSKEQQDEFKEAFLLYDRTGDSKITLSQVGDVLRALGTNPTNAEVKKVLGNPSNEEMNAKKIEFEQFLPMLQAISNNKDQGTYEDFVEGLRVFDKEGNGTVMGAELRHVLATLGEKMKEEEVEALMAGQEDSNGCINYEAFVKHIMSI
# T2 sequence (P02608 2-170, chain 3 of 3, further chain): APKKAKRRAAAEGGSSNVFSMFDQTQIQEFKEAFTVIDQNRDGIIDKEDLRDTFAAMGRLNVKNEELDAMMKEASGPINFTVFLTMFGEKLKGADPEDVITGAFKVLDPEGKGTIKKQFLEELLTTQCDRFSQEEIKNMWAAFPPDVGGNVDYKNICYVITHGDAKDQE
binder,measurement,setting,value
B1,Kd,[1],0.302 µM
B2,Kd,Rabbit skeletal myosin [2],0.33 µM
B3,"GFS: force to uncoil the S2 peptide dimer to a length of 10 nm, no anti-S2 peptide (control)",[3],0.863 pN
B4,"GFS: force to uncoil the S2 peptide dimer to a length of 10 nm, no anti-S2 peptide (control)",[3],0.45 pN
B5,Kd,[4],0.001 µM
same,binding result,[5],no binding
same,GFS: fold less force required to uncoil myosin in presence of destabilizer against control,Rabbit skeletal myosin [6],1.6 times
same,GFS: fold decrease of the force required to uncoil the coiled coil against control,[7],2.45 times
same,GFS: fold decrease of the force required to uncoil the coiled coil against control,[8],1.98 times
same,Kd,Rabbit skeletal myosin [9],0.075 µM
same,"GFS: force to uncoil the S2 peptide dimer to a length of 10 nm, with destabilizer",[10],0.184 pN
same,"GFS: force to uncoil the S2 peptide dimer to a length of 10 nm, with destabilizer",[11],0.436 pN
same,"GFS: force to uncoil the S2 peptide dimer to a length of 10 nm, with destabilizer",[12],0.451 pN
same,Kd,[13],0.469 µM
same,Kd,[14],1.33 µM
same,Kd,[15],0.006 µM
B6,Kd,Rabbit skeletal myosin [9],0.176 µM
B7,Kd,[16],3.24 µM
same,Kd,[1],1.11 µM
B8,Kd,[16],0.308 µM
same,Kd,[1],0.303 µM
B9,"GFS: force to uncoil the S2 peptide dimer to a length of 10 nm, no anti-S2 peptide (control)",[3],0.461 pN
B10,Kd,[16],2.54 µM
same,Kd,[1],0.942 µM
B11,Kd,[1],0.341 µM
B12,binding result,[5],no binding
same,Kd,[17],0.00137 µM
same,Kd,[18],0.001 µM
same,GFS: fold of force required to uncoil myosin in presence of stabilizer against control,Rabbit skeletal myosin [6],1.5 times
same,GFS: fold increase of the force required to uncoil the coiled coil against control,[7],1.4 times
same,GFS: fold increase of the force required to uncoil the coiled coil against control,[8],1.8 times
same,GFS: fold increase of the force required to uncoil the coiled coil against control,[19],2.6 times
same,Kd,[20],0.00138 µM
same,Kd,Rabbit skeletal myosin [21],0.006 µM
same,"GFS: force to uncoil the S2 peptide dimer to a length of 10 nm, with stabilizer",[10],0.628 pN
same,"GFS: force to uncoil the S2 peptide dimer to a length of 10 nm, with stabilizer",[11],1.55 pN
same,"GFS: force to uncoil the S2 peptide dimer to a length of 10 nm, with stabilizer",[22],1.07 pN
same,"GFS: force to uncoil the S2 peptide dimer to a length of 10 nm, with stabilizer",[12],0.496 pN
same,Kd,[23],0.0212 µM
same,Kd,[24],0.238 µM
same,Kd,[25],0.034 µM
same,Kd,[26],0.0197 µM
same,Kd,[27],36200 µM
